B1: JAL-1751 (peptide)
peptide: [Occ][Sni]FLL[Hyp][NMeL]NR[Che]
modifications: not fully specified (residue 4); printed as Occ-Sni-Phe-leu-Leu-Hyp-Nml-Asn-Arg-Che; reading uncertain
B2: JAL-1682 (peptide)
peptide: [Occ][Sni]FLL[Pro(trans-4-NH2)][NMeL]DR[Che]
modifications: not fully specified (residue 4); printed as Occ-Sni-Phe-leu-Leu-Tap-Nml-Asp-Arg-Che; reading uncertain
B3: JAL-1777 (peptide)
peptide: Octanoyl-[Sni]F[lys(Me2)]L[Hyp][NMeL]DR[Che]
modifications: reading uncertain; also: printed as Occ-Sni-Phe-lys(Me2)-Leu-Hyp-Nml-Asp-Arg-Che
B4: JAL-1729 (peptide)
peptide: [Occ][Sni]FLL[Pro(trans-4-NH2)][NMeL]VR[Che]
modifications: not fully specified (residue 4); printed as Occ-Sni-Phe-leu-Leu-Tap-Nml-Val-Arg-Che; reading uncertain
B5: JAL-1774 (peptide)
peptide: [AR‑314‑102][leu]L[Hyp][NMeL]DRI-NH2
modifications: reading uncertain; also: printed as (AR-314-102)-leu-Leu-Hyp-Nml-Asp-Arg-Ile-NH2
B6: JAL-1685 (peptide)
peptide: [Occ][Sni]FLL[Hyp][NMeL]D[Apc(Gua)][Che]
modifications: not fully specified (residue 4); printed as Occ-Sni-Phe-leu-Leu-Hyp-Nml-Asp-Apc(Gua)-Che; reading uncertain
B7: JAL-1756 (peptide)
peptide: [Occ][Sni]FLL[Hyp][NMeL][d(β3hL)]R[Che]
modifications: not fully specified (residue 4); printed as Occ-Sni-Phe-leu-Leu-Hyp-Nml-Ble-Arg-Che; reading uncertain
B8: JAL-1781 (peptide)
peptide: Octanoyl-[Sni]F[lys(Me2)]L[Hyp][NMeL]DRI-NH2
modifications: reading uncertain; also: printed as Occ-Sni-Phe-lys(Me2)-Leu-Hyp-Nml-Asp-Arg-Ile-NH2
B9: JAL-1683 (peptide)
peptide: [Occ][Sni]FLL[Tap(Ae)][NMeL]VR[Che]
modifications: not fully specified (residue 4); printed as Occ-Sni-Phe-leu-Leu-Tap(Ae)-Nml-Val-Arg-Che; reading uncertain
B10: JAL-1778 (peptide)
peptide: Octanoyl-[Sni]F[orn(Me2)]L[Hyp][NMeL]VR[Che]
modifications: reading uncertain; also: printed as Occ-Sni-Phe-orn(Me2)-Leu-Hyp-Nml-Val-Arg-Che
B11: JAL-1758 (peptide)
peptide: [Occ][Sni]FLL[Hyp][NMeL][2Thi]R[Che]
modifications: not fully specified (residue 4); printed as Occ-Sni-Phe-leu-Leu-Hyp-Nml-Thi-Arg-Che; reading uncertain
B12: JAL-1687 (peptide)
peptide: [Occ][Sni]FLL[Hyp][NMeL]D[Apc(Gly)][Che]
modifications: not fully specified (residue 4); printed as Occ-Sni-Phe-leu-Leu-Hyp-Nml-Asp-Apc(Gly)-Che; reading uncertain
B13: JAL-1730 (peptide)
peptide: [Occ][Sni]FLL[Hyp][NMeL]VR[Che]
modifications: not fully specified (residue 4); printed as Occ-Sni-Phe-leu-Leu-Hyp-Nml-Val-Arg-Che; reading uncertain
B14: JAL-1753 (peptide)
peptide: [Occ][Sni]FLL[Hyp][NMeL]TR[Che]
modifications: not fully specified (residue 4); printed as Occ-Sni-Phe-leu-Leu-Hyp-Nml-Thr-Arg-Che; reading uncertain
B15: JAL-1697 (peptide)
peptide: [Occ][Sni]FLL[Hyp][NMeL]D[BB785][Che]
modifications: not fully specified (residue 4); printed as Occ-Sni-Phe-leu-Leu-Hyp-Nml-Asp-(BB785)-Che; reading uncertain
B16: JAL-1776 (peptide)
peptide: Octanoyl-[Sni]F[orn(Me2)]L[Hyp][NMeL]DR[Che]
modifications: reading uncertain; also: printed as Occ-Sni-Phe-orn(Me2)-Leu-Hyp-Nml-Asp-Arg-Che
B17: JAL-1701 (peptide)
peptide: [Occ][Sni][hPhe]LL[Hyp][NMeL]DRI-NH2
modifications: not fully specified (residue 4); printed as Occ-Sni-Hfe-leu-Leu-Hyp-Nml-Asp-Arg-Ile-
B18: JAL-1755 (peptide)
peptide: [Occ][Sni]FLL[Hyp][NMeL][Nle]R[Che]
modifications: not fully specified (residue 4); printed as Occ-Sni-Phe-leu-Leu-Hyp-Nml-Nle-Arg-Che; reading uncertain
B19: JAL-1782 (peptide)
peptide: Octanoyl-[Sni]F[orn(Me2)]L[Hyp][NMeL]VRI-NH2
modifications: reading uncertain; also: printed as Occ-Sni-Phe-orn(Me2)-Leu-Hyp-Nml-Val-Arg-Ile-NH2
B20: JAL-1752 (peptide)
peptide: [Occ][Sni]FLL[Hyp][NMeL]SR[Che]
modifications: not fully specified (residue 4); printed as Occ-Sni-Phe-leu-Leu-Hyp-Nml-Ser-Arg-Che; reading uncertain
B21: JAL-1694 (peptide)
peptide: [Occ][Sni]FLL[Hyp][NMeL]D[BB394][Che]
modifications: not fully specified (residue 4); printed as Occ-Sni-Phe-leu-Leu-Hyp-Nml-Asp-(BB394)-Che; reading uncertain
B22: JAL-1779 (peptide)
peptide: Octanoyl-[Sni]F[lys(Me2)]L[Hyp][NMeL]VR[Che]
modifications: reading uncertain; also: printed as Occ-Sni-Phe-lys(Me2)-Leu-Hyp-Nml-Val-Arg-Che

Numbered stars: 1 amine (or outer) side, 2 acyl side, 3 side chain; on linkers, the order of the positions; unused ones are H or OH. Square brackets hold non-standard residues; d marks the D form. Ends that are not written are not given here. * marks the point of attachment. Tap(Ae) = (2S,4R)-4-(2-aminoethylamino)pyrrolidine-2-carboxylic acid, O=C([C@@H]1C[C@@H](NCCN[*:3])CN1[*:1])[*:2]; Paa = piperazin-1-yl-acetic acid, O=C(CN1CCN([*:1])CC1)[*:2]; Pro(trans-4-NH2) = O=C([C@@H]1C[C@@H](N[*:3])CN1[*:1])[*:2]; Sni = (S)-nipecotic acid, O=C([C@H]1CCCN([*:1])C1)[*:2]; Hyp = O=C(O)[C@@H]1C[C@@H](O)CN1; d(β3hL) = CC(C)C[C@@H](N)CC(=O)O; hPhe = N[C@@H](CCc1ccccc1)C(=O)O; 2Thi = N[C@@H](Cc1cccs1)C(=O)O; AR‑314‑102 = not defined here; NMeL = CN[C@@H](CC(C)C)C(=O)O; AR‑314‑87 = not defined here; Chg = N[C@H](C(=O)O)C1CCCCC1; lys(Me2) = not defined here; orn(Me2) = not defined here; BB394 = not defined here; BB785 = not defined here; Nle = CCCC[C@H](N)C(=O)O; Octanoyl = CCCCCCCC(=O)*; Che = not defined here; Hexanoyl = CCCCCC(=O)*; leu = not defined here; Occ = octanoic acid

The target of this assay is T1, natriuretic peptide receptor-B (human).
T1 chain: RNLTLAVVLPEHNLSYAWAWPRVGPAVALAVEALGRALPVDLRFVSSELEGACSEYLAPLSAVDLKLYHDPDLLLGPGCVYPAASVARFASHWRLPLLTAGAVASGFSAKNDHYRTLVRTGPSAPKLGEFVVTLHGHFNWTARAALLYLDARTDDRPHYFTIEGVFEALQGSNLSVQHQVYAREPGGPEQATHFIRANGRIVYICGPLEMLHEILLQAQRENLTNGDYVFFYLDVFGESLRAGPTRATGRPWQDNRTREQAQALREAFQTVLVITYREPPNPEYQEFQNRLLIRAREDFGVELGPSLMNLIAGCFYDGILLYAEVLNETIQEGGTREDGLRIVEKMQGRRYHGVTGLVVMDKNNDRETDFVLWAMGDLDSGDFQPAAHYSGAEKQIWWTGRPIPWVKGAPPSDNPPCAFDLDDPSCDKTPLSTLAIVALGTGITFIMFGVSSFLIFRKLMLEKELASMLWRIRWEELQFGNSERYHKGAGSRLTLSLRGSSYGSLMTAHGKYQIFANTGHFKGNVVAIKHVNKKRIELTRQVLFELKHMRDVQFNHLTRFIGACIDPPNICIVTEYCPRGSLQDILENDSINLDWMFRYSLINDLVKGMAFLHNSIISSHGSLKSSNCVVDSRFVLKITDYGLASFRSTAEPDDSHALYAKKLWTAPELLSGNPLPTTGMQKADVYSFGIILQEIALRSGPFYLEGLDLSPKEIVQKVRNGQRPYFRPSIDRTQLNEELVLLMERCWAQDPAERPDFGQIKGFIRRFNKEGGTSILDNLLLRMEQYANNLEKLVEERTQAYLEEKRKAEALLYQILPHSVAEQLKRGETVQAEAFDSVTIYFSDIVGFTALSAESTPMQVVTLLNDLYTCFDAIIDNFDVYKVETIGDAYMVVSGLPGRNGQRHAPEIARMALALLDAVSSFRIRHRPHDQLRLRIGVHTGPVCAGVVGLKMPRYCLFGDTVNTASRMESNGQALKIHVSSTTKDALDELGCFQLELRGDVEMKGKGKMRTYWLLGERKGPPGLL
Kind of assay: cell-based or functional assay.
Turning to Hexanoyl-[dA][dA]F[Paa]KLDRI-NH2 [JAL-0731], the “EC50 group, cGMP in GTM-3 cells” value is no more than 15 µM.

In the case of Octanoyl-[Sni]F[leu]L[Hyp][NMeL][Chg]R[Che] (reading uncertain; also: printed as Occ-Sni-Phe-leu-Leu-Hyp-Nml-Chg-Arg-Che) [JAL-1763], the “EC50 group, cGMP in GTM-3 cells” value was no more than 15 µM.

In the case of B1, the “EC50 group, cGMP in GTM-3 cells” value is no more than 15 µM.

Take [AR‑314‑87][leu]L[Hyp][NMeL]DRI-NH2 (reading uncertain; also: printed as (AR-314-87)-leu-Leu-Hyp-Nml-Asp-Arg-Ile-NH2) [JAL-1765-2]: the “EC50 group, cGMP in GTM-3 cells” value was no more than 1 µM.

As to B2, the “EC50 group, cGMP in GTM-3 cells” value was no more than 1 µM.

With B3, the “EC50 group, cGMP in GTM-3 cells” value is no more than 1 µM.

On to B4, for which the “EC50 group, cGMP in GTM-3 cells” value is no more than 1 µM.

As for B5, the “EC50 group, cGMP in GTM-3 cells” value is no more than 1 µM.

As to B6, the “EC50 group, cGMP in GTM-3 cells” value was no more than 15 µM.

B7: the “EC50 group, cGMP in GTM-3 cells” value is no more than 5 µM.

Consider B8, for which the “EC50 group, cGMP in GTM-3 cells” value is no more than 5 µM.

For the molecule B9, the “EC50 group, cGMP in GTM-3 cells” value is no more than 15 µM.

Take B10: the “EC50 group, cGMP in GTM-3 cells” value was no more than 5 µM.

In the case of B11, the “EC50 group, cGMP in GTM-3 cells” value was no more than 15 µM.

Regarding B12, the “EC50 group, cGMP in GTM-3 cells” value is no more than 5 µM.

As to B13, the “EC50 group, cGMP in GTM-3 cells” value is no more than 1 µM.

For B14, the “EC50 group, cGMP in GTM-3 cells” value was no more than 1 µM.

For the molecule B15, the “EC50 group, cGMP in GTM-3 cells” value is no more than 5 µM.

Regarding B16, the “EC50 group, cGMP in GTM-3 cells” value is no more than 1 µM.

Turning to B17, the “EC50 group, cGMP in GTM-3 cells” value was no more than 15 µM.

For Octanoyl-[Sni]F[dK](Me2)L[Hyp][NMeL]VRI-NH2 [JAL-1783], the “EC50 group, cGMP in GTM-3 cells” value was no more than 15 µM.

Turning to B18, the “EC50 group, cGMP in GTM-3 cells” value is no more than 15 µM.

In the case of B19, the “EC50 group, cGMP in GTM-3 cells” value was no more than 1 µM.

Take B20: the “EC50 group, cGMP in GTM-3 cells” value was no more than 1 µM.

On to Hexanoyl-[dA][dA]FGLKLDR[Chg]-NH2 [JAL-0718], for which the “EC50 group, cGMP in GTM-3 cells” value was no more than 15 µM.

On to B21, for which the “EC50 group, cGMP in GTM-3 cells” value was no more than 15 µM.

As to B22, the “EC50 group, cGMP in GTM-3 cells” value was no more than 1 µM.

The values are drawn from patent publication US9187525B2, “Methods of treating ophthalmic diseases using NPR-B agonists” (Shire Orphan Therapies GmbH, dated 2015).
